Experimental findings from US20120114652A1 (AbbVie / Abbott, published 2012) are described below.

B1: rat PAI-1 (other)
chain: SPLPESHTAQQATNFGVKVFQHVVQASKDRNVVFSPYGVSSVLAMLQLTTAGKTRQQIQDAMGFNISERGTAPALRKLSKELMGSWNKNEISTADAIFVQRDLELVQGFMPHFFKLFRTTVKQVDFSEVERARFIINDWVERHTKGMISDLLAKGAVNELTRLVLVNALYFNGQWKTPFLEASTHQRLFHKSDGSTISVPMMAQNNKFNYTEFTTPDGHEYDILELPYHGETLSMFIAAPFEKDVPLSAITNILDAELIRQWKSNMTRLPRLLILPKFSLETEVDLRGPLEKLGMTDIFSSTQADFTSLSDQEQLSVAQALQKVKIEVNESGTVASSSTAILVSARMAPTEMVLDRSFLFVVRHNPTETILFMGQLMEP
notes: bought (US Biological)
B5: mouse PAI-1 (other)
chain: ALPLRESHTAHQATDFGVKVFQQVVQASKDRNVVFSPYGVSSVLAMLQMTTAGKTRRQIQDAMGFKVNEKGTAHALRQLSKELMGPWNKNEISTADAIFVQRDLELVQGFMPHFFKLFQTMVKQVDFSEVERARFIINDWVERHTKGMINDLLAKGAVDELTRLVLVNALYFSGQWKTPFLEASTHQRLFHKSDGSTVSVPMMAQSNKFNYTEFTTPDGLEYDVVELPYQGDTLSMFIAAPFEKDVHLSALTNILDAELIRQWKGNMTRLPRLLILPKFSLETEVDLRGPLEKLGMPDMFSATLADFTSLSDQEQLSVAQALQKVRIEVNESGTVASSSTAFVISARMAPTEMVIDRSFLFVVRHNPTETILFMGQVMES
notes: bought (US Biological); also called murine PAI-1

The target of one test is PICK167_A01 IgG1. The test can be described thus: competition ELISA (DELFIA): PICK167_A01 IgG1 coated on the plate, binding of biotinylated human PAI-1 detected with streptavidin-Eu3+ in the presence of a titration of the unlabelled test antigen (the varied molecule).
Test [1] deals with T1, PICK167_A01-fgl IgG1 (CAT-1001).
T1 construct: fully germlined variant, made as an IgG1 only; also called PICK67A01-fgl
Description: competition ELISA (DELFIA): PICK167_A01-fgl IgG1 (CAT-1001) coated on the plate, binding of biotinylated human PAI-1 detected with streptavidin-Eu3+ in the presence of a titration of the unlabelled test antigen (the varied molecule).

For test [2], the target named is T2, human PAI-1, active, wild-type, non-glycosylated (E. coli-derived) (human, UniProt P05121 24-402). The test can be described thus: cell-based or functional assay.
Test [3] has as its target B1. Description: cell-based or functional assay.
Test [4] deals with B5. Description: cell-based or functional assay.
Test [5] deals with T3, cynomolgus PAI-1 (cynomolgus, UniProt P05121 24-402 (human entry), limits assumed). The test can be described thus: cell-based or functional assay.
For test [6], the target named is B1. The test can be described thus: competition ELISA (DELFIA), IgG coated, competitor titrated against biotinylated active human PAI-1.
A further test addresses T4, latent human PAI-1 (human, UniProt P05121 24-402).
T4 construct: also called latent PAI-1
The description is as above.

The next test deals with T5, rabbit PAI-1 (rabbit).
T5 chain: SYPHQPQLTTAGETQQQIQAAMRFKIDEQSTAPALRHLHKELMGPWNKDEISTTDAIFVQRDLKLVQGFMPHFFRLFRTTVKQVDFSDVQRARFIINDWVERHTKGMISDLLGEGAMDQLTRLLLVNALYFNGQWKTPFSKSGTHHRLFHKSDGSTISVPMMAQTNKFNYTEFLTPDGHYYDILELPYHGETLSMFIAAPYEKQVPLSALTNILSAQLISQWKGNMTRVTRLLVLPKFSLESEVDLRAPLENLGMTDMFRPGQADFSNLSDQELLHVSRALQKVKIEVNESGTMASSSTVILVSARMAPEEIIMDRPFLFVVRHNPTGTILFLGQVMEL
Described as above.

Test [7] concerns the target B5. The description is as above.
For test [8], the target named is glycosylated active human PAI-1 produced by CHO cells (human, UniProt P05121 24-402, N-glycosylated (CHO-produced)). The test can be described thus: cell-based or functional assay.
For test [9], the target named is T2, human PAI-1, active, wild-type, …. The test can be described thus: cell-based or functional assay. The source holds these as a separate data set.
In test [10] the target is B1. Description: cell-based or functional assay. The source holds these as a separate data set.
The target in test [11] is B5. Description: cell-based or functional assay. This is another data set of the same source.
Test [12] concerns the target T2, human PAI-1, active, wild-type, …. The test can be described thus: cell-based or functional assay. This is another data set of the same source.
The target in test [13] is B5. The test can be described thus: cell-based or functional assay. This is another data set of the same source.
Test [14] has as its target T3, cynomolgus PAI-1. The test can be described thus: cell-based or functional assay. This is another data set of the same source.

Take B1: the “IC50 (read off the curve)” value with PICK167_A01 IgG1 is approximately 2 nM; in [1], approximately 1 nM.

B2: Antibody 20, IgG1, not germlined (antibody, V domains shown)
VH: QVQLQQSGAEVKKPGSSVKVSCKASGGTFSSYAISWVRQAPGQGLEWMGGIIPTFGTANYAQKFQGRVTITADESTSTAYMELSSLRSEDTAVYYCAREKRQWLEGHFDYWGRGTLVTVSS
VL: DIQMTQSPSTLSASVGDRVTITCRASEGIYHELAWYQQKPGKAPKLLIYRASSLASGVPSRFSGSRSGTEFTLTISSLQPDDFATYYCQQYSDYPLTFGGGTKVEIK
notes: whole IgG1; also called Ab 20
In the case of B2, the IC50 chromogenic in [2] came out at 1.6 nM; in the test with rat PAI-1 [3], 2.9 nM; with mouse PAI-1 [4], 1.4 nM; in the test with cynomolgus PAI-1 [5] it was 0.8 nM. Further, in the test with rat PAI-1 [3], the IC50 ratio rat/human is 1.8. Also, the IC50 ratio mouse/human with mouse PAI-1 [4] came to 0.9. In the test with cynomolgus PAI-1 [5], the IC50 ratio cyno/human was found to be 0.5. Moreover, the IC50 ratio rat/wt with rat PAI-1 [6] was 2.3. Besides, the IC50 ratio latent/wt with latent human PAI-1 came to 7.5. Moreover, the IC50 ratio rabbit/wt with rabbit PAI-1 came out at 9.1. For the same molecule, the IC50 ratio mouse/wt in the test with mouse PAI-1 [7] came to 7.6. The “IC50 chromogenic, hu glyco” value in [8] was 1.3 nM. In addition, the “IC50 HT-1080 Exo PAI-1” value in [9] amounted to 7.3 nM; in the test with rat PAI-1 [10], 16.2 nM; with mouse PAI-1 [11], 5.9 nM.

B3: Antibody 08, scFv (scFv, V domains shown)
VH: QVQLVQSGAEVKKPGSSVKVSCKASGGTFSSYAISWVRQAPGQGLEWMGGIIPTFGTANYAQKFQGRVTITADESTSTAYMELSSLRSEDTAVYYCARERRQWLEGHFDYWGRGTLVTVSS
VL: DIQMTQSPSTLSASVGDRVTITCRASEGIYHNLAWYQQKPGKAPKLLIYKASSLASGVPSRFSGSRSGTEFTLTISSLQPDDFATYYCQQYSNYPLTFGGGTKVEIK
In the case of B3, the “IC50 chromogenic (FIG. 2a)” value in test [12] is 3.6 nM. The “IC50 chromogenic (FIG. 2d)” value with mouse PAI-1 [13] came to 2.6 nM. Further, in the test with cynomolgus PAI-1 [14], the “IC50 chromogenic (FIG. 2b)” value amounted to 0.8 nM. Moreover, the figures for the IC50 chromogenic (in test [2]; with rat PAI-1 [3]; with cynomolgus PAI-1 [5]) were 3.2 nM, 3 nM and 1 nM, respectively. The “IC50 HT-1080 Exo PAI-1” value in [9] is 23.7 nM; with rat PAI-1 [10] it was 50.1 nM; in the test with mouse PAI-1 [11], 26.2 nM.

B4: Antibody 27, IgG1, not germlined (antibody, V domains shown)
VH: QVQLQQSGAEVKKPGSSVKVSCKASGGAFSSYAISWVRQAPGQGLEWMGGIIPTFGTANYAQKFQGRVTITADESTSTAYMELSGLRSEDTAVYYCAREKRQWLEGHFDYWGRGTPVTVSS
VL: DIQMTQSPSFLSASIGDRVTITCRASEGIYHNLAWYQQKPGKAPKLLIYRASSLASGAPSRFSGSGSGTDFTLTISSLQPDDFATYYCQQYSNYPLTFGGGTKLEIK
notes: whole IgG1; also called Ab 27
Take B4: the IC50 chromogenic was determined as 4.9 nM in test [2], 26.5 nM with rat PAI-1 [3] and 16.1 nM with mouse PAI-1 [4]. For the same molecule, the IC50 ratio rat/human in the test with rat PAI-1 [3] worked out at 5.4. In the test with mouse PAI-1 [4], the IC50 ratio mouse/human came to 3.3. Besides, the IC50 ratio rat/wt with rat PAI-1 [6] turned out to be 1.2. Besides, the IC50 ratio latent/wt with latent human PAI-1 came out at 6.8. The IC50 ratio rabbit/wt in the test with rabbit PAI-1 came to 85. In addition, the IC50 ratio mouse/wt with mouse PAI-1 [7] stood at 6.1. In addition, in [8], the “IC50 chromogenic, hu glyco” value is 2.6 nM. Also, the “IC50 HT-1080 Exo PAI-1” value in test [9] was 10.9 nM; with rat PAI-1 [10], 16.1 nM; in the test with mouse PAI-1 [11] it was 7.8 nM.
As to B5, the “IC50 (read off the curve)” value in the test with PICK167_A01 IgG1 is approximately 4 nM; in test [1], approximately 2 nM.
